Assay results: publication PMC9663165, “Human immunomodulatory ligand B7-1 mediates synaptic remodeling via the p75 neurotrophin receptor” (The Journal of Clinical Investigation, 2022)
Where a chain is given by its changes, count along the chain named. In names and notes the source's numbering stands.

T1: full-length human p75 neurotrophin receptor fused at the cytoplasmic C-terminus to GFP (human, UniProt P08138 29-427)
T1 construct: As query against the GFP-tagged library it carried the opposite colour tag (mCherry); kept as one molecule; also called p75^NTR; NGFR; source: HEK293 suspension cells, transiently transfected, on cells; not shown: GFP, C-terminal, kept
T1 sequence (looked up): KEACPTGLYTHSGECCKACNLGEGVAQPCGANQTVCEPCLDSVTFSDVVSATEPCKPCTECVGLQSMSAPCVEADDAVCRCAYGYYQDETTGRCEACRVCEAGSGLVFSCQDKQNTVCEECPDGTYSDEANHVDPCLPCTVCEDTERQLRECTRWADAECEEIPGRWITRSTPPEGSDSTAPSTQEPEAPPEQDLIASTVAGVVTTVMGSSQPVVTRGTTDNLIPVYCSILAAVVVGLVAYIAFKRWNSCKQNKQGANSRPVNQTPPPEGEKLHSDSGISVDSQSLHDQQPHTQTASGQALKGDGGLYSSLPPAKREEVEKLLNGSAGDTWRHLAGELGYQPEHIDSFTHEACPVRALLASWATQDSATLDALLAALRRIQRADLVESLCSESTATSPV

T2: B7-1–hIgG1 biotin (human, UniProt P33681 35-233, biotin on the AVI tag)
T2 construct: human B7-1 (CD80) ectodomain, residues 35-233; also called recombinant biotinylated B7-1–Fc protein; B7-1–Fc biotin; source: Expi293 cells stably expressing BirA, transiently transfected, purified; not shown: Fc (human IgG1), C-terminal, kept; AVI tag, C-terminal, kept
T2 sequence (looked up): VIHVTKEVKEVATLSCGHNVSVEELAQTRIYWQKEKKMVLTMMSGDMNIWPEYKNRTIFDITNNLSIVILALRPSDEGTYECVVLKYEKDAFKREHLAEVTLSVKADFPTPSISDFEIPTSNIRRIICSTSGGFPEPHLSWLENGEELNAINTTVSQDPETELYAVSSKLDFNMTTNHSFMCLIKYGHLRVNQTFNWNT

T3: human p75 neurotrophin receptor-GFP (human, UniProt P08138 29-427)
T3 construct: also called p75NTR; NGFR; source: HEK293F, transiently transfected, on cells; not shown: GFP, C-terminal, kept
T3 sequence (looked up): T1 sequence (looked up)

B1: hB7-1 E41A–mCherry (ligand, human, UniProt P33681 35-288, looked up)
chain: VIHVTKAVKEVATLSCGHNVSVEELAQTRIYWQKEKKMVLTMMSGDMNIWPEYKNRTIFDITNNLSIVILALRPSDEGTYECVVLKYEKDAFKREHLAEVTLSVKADFPTPSISDFEIPTSNIRRIICSTSGGFPEPHLSWLENGEELNAINTTVSQDPETELYAVSSKLDFNMTTNHSFMCLIKYGHLRVNQTFNWNTTKQEHFPDNLLPSWAITLISVNGIFVICCLTYCFAPRCRERRRNERLRRESVRPV
notes: human B7-1 (CD80), point mutant in the IgV domain; source: HEK293F, transfected, on cells
B2: hB7-1 S49A–mCherry (ligand, human, UniProt P33681 35-288, looked up)
chain: B1 chain with A7E, S15A
notes: as for B1
B3: hB7-1 K139D–mCherry (ligand, human, UniProt P33681 35-288, looked up)
chain: B1 chain with A7E, K105D
notes: as for B1
B4: hB7-1 E69A–mCherry (ligand, human, UniProt P33681 35-288, looked up)
chain: B1 chain with A7E, E35A
notes: as for B1
B5: hB7-1 V45D–mCherry (ligand, human, UniProt P33681 35-288, looked up)
chain: B1 chain with A7E, V11D
notes: as for B1
B6: hB7-1 K120D–mCherry (ligand, human, UniProt P33681 35-288, looked up)
chain: B1 chain with A7E, K86D
notes: as for B1
B7: hB7-1 Y65A–mCherry (ligand, human, UniProt P33681 35-288, looked up)
chain: B1 chain with A7E, Y31A
notes: as for B1
B8: hB7-1 T39A–mCherry (ligand, human, UniProt P33681 35-288, looked up)
chain: B1 chain with T5A, A7E
notes: as for B1
B9: hB7-1 K40D–mCherry (ligand, human, UniProt P33681 35-288, looked up)
chain: B1 chain with K6D, A7E
notes: human B7-1 (CD80), point mutant in the IgV domain; printed once as K40D and once as Y40D; also called Y40D; source: HEK293F, transfected, on cells
B10: hB7-1 K127D–mCherry (ligand, human, UniProt P33681 35-288, looked up)
chain: B1 chain with A7E, K93D
notes: as for B1
B11: hB7-1 R63D–mCherry (ligand, human, UniProt P33681 35-288, looked up)
chain: B1 chain with A7E, R29D
notes: as for B1
B12: hB7-1 I36A–mCherry (ligand, human, UniProt P33681 35-288, looked up)
chain: B1 chain with I2A, A7E
notes: as for B1
B13: hB7-1 I36D–mCherry (ligand, human, UniProt P33681 35-288, looked up)
chain: B1 chain with I2D, A7E
notes: as for B1
B14: hB7-1 L131D–mCherry (ligand, human, UniProt P33681 35-288, looked up)
chain: B1 chain with A7E, L97D
notes: as for B1
B15: hB7-1 K43D–mCherry (ligand, human, UniProt P33681 35-288, looked up)
chain: B1 chain with A7E, K9D
notes: as for B1
B16: hB7-1 Y121D–mCherry (ligand, human, UniProt P33681 35-288, looked up)
chain: B1 chain with A7E, Y87D
notes: as for B1
B17: p75^NTR-mIgG2A (Fc fusion, UniProt P08138 29-250, looked up)
chain: KEACPTGLYTHSGECCKACNLGEGVAQPCGANQTVCEPCLDSVTFSDVVSATEPCKPCTECVGLQSMSAPCVEADDAVCRCAYGYYQDETTGRCEACRVCEAGSGLVFSCQDKQNTVCEECPDGTYSDEANHVDPCLPCTVCEDTERQLRECTRWADAECEEIPGRWITRSTPPEGSDSTAPSTQEPEAPPEQDLIASTVAGVVTTVMGSSQPVVTRGTTDN
notes: p75NTR (NGFR) full-length ectodomain; also called p75^NTR-Fc; source: Expi293 suspension cells, transiently transfected, purified; not shown: Fc (mouse IgG2a), C-terminal, kept
B18: hB7-1-mIgG2A (Fc fusion, human, UniProt P33681 35-233, looked up)
chain: T2 sequence (looked up)
notes: B7-1 (CD80), human, ectodomain residues 35-233; also called B7-1-Fc; WT B7-1-Fc; source: Expi293, transiently expressed, purified (Ni2+ His60 resin, S200 gel filtration); not shown: Fc (mouse IgG2a), C-terminal, kept
B19: hB7-1N82E-mIgG2A (Fc fusion, human, UniProt P33681 35-233, looked up)
chain: T2 sequence (looked up) with N48E
notes: B7-1 (CD80), human, ectodomain residues 35-233 with N82E; also called B7-1N82E-Fc; source: Expi293, transiently expressed, purified (Ni2+ His60 resin, S200 gel filtration); not shown: Fc (mouse IgG2a), C-terminal, kept

The binders below were run against T4, CD28-GFP (human, UniProt P10747 19-220) (assay: flow cytometry on cells; cell-cell conjugates: HEK293F cells expressing 92 B7-1–mCherry point mutants (IgV domain) against HEK293F cells expressing CTLA-4–GFP, CD28-GFP or p75NTR-GFP; percent of WT binding). Settings: partners not purified.
T4 construct: human CD28, member of the human Ig superfamily library; source: HEK293F, transfected, on cells; not shown: GFP, C-terminal, kept

| loss in binding relative to WT [%] | Binder |
| --- | --- |
| > 25 | B1 |
| > 25 | B2 |
| > 25 | B3 |
| > 25 | B4 |
| > 25 | B5 |
| > 25 | B6 |
| > 25 | B7 |
| > 25 | B8 |
| > 25 | B9 |
| > 25 | B10 |
| > 25 | B11 |
| > 25 | B12 |
| > 25 | B13 |
| > 25 | B14 |
| > 25 | B15 |

What follows are binders tested against T1, full-length human p75 neurotrophin … in the same assay as above. Settings: partners not purified.

| loss in binding relative to WT [%] | Binder |
| --- | --- |
| > 25 | B2 |
| > 25 | B7 |
| > 25 | B8 |
| > 25 | B9 |
| > 25 | B16 |
| > 25 | B13 |
| > 25 | B15 |

The binders below were run against T2, B7-1–hIgG1 biotin (assay: flow cytometry on protein-coated beads; p75NTR-mIgG2a or CTLA-4–mIgG2a titrated (0 to 100 nM, 30 min) onto streptavidin beads coated with B7-1–hIgG1 biotin; detected with anti-mIgG2a; PBS 0.2% BSA pH 7.4; Hill fit; dimeric fusion proteins). Settings: both partners purified.

| EC50 [nM] | Binder |
| --- | --- |
| 16 | B17 |

These binders were tested against T3, human p75 neurotrophin receptor-GFP (assay: flow cytometry on cells; recombinant B7-1-Fc or B7-1N82E-Fc titrated (up to 1.2 uM) onto cells expressing CTLA-4, CD28 or p75NTR; detected with an anti-mouse 647 labelled antibody; EC50 calculated). Settings: one partner purified.

| EC50 [nM] | Binder |
| --- | --- |
| 285 | B18 |

Each binder was assayed against T5, CD28 on cells (Figure S6) ( (human or mouse cDNA cloned), UniProt P10747 19-220) in the same assay as above. Settings: one partner purified.
T5 construct: CD28; Probably a C-terminal GFP fusion in HEK293F cells as in the other experiments; also called CD28 Expressing Cells; CD28 cells

| EC50 [nM] | Binder |
| --- | --- |
| 9.7 | B18 |
| 10.3 | B19 |

What follows are binders tested against T6, CTLA-4 on cells (Figure S6) ( (human or mouse cDNA cloned), UniProt P16410 36-223) in the same assay as above. Settings: one partner purified.
T6 construct: CTLA-4; Probably a C-terminal GFP fusion in HEK293F cells as in the other experiments; also called CTLA-4 Expressing Cells; CTLA-4 cells
T6 sequence (P16410 36-223): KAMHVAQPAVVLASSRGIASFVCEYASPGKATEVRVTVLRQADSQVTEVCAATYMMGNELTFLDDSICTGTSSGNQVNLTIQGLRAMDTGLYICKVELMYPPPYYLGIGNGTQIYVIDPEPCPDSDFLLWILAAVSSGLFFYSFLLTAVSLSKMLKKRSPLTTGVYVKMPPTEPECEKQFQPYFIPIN

| EC50 [nM] | Binder |
| --- | --- |
| 0.69 | B18 |
| 9.2 | B19 |
